This is an account of results in US9193790B2, “Use of antagonists of the interaction between HIV GP120 and A4B7 integrin” (priority 2006, dated 2015).

One experiment addresses T1, α4β7 integrin (Homo sapiens, UniProt P13612+P26010).
T1 sequence (P13612 34-1032): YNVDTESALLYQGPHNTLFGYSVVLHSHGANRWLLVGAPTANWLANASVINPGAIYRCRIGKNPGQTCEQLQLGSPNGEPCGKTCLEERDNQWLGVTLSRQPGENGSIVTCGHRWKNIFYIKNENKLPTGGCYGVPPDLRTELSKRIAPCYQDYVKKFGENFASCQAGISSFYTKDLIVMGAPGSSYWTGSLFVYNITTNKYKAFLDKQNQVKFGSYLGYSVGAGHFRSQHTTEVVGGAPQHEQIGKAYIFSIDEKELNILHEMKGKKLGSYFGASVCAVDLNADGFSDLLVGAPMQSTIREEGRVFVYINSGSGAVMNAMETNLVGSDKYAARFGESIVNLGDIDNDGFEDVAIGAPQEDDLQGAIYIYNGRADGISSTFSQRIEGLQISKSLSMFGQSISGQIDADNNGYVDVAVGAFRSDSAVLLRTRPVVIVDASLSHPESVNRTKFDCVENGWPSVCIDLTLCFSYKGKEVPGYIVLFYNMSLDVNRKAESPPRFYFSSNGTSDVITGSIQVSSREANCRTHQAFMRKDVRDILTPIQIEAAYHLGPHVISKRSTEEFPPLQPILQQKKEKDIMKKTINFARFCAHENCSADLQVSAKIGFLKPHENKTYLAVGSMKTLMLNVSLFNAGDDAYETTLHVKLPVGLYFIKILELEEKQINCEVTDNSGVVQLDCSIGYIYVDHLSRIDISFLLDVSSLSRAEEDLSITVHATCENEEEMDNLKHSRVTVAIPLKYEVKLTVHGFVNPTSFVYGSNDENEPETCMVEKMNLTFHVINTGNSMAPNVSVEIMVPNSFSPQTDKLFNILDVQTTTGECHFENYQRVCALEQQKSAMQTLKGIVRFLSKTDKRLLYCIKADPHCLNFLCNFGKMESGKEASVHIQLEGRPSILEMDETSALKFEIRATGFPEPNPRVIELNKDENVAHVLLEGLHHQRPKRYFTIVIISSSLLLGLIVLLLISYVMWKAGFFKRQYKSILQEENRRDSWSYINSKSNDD
T1 sequence (P26010 20-798): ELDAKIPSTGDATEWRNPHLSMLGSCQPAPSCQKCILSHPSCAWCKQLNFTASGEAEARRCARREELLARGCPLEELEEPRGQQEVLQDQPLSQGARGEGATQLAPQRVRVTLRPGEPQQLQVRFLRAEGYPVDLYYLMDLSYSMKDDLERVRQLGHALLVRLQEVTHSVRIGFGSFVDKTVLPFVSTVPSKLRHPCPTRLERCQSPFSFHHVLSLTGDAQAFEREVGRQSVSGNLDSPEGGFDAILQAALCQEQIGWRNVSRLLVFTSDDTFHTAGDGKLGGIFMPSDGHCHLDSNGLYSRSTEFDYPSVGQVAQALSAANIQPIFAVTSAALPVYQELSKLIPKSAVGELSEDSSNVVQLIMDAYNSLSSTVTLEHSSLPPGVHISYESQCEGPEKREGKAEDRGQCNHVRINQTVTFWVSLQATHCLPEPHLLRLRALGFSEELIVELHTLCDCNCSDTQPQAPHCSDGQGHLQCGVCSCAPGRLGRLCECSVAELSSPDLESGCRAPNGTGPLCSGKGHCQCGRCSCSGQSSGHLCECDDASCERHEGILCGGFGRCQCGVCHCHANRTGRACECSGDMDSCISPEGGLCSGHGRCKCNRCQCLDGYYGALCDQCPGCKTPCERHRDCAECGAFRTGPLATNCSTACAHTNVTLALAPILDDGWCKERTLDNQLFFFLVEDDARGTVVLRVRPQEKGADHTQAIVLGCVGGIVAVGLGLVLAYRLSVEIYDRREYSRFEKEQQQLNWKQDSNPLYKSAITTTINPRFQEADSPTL
To be noted: fibronectin, VCAM, MadCAM (Vanderslice et al. 1997); cited from earlier work.

Experiment [1] concerns the target T2, α4β7 integrin on CD8+ T-cells (Homo sapiens, UniProt P13612+P26010).
T2 construct: Purified CD4+ T cells and NK cells were obtained by negative selection using magnetic beads; On NKs β7 integrin pairs with α4 integrin (CD49d); endogenous in cells; host or cells: freshly isolated NK cells; OKT3/IL2/retinoic acid-cultured PBMCs (CD8-depleted, i.e. CD4+ T cells) and CD8+ T cells from healthy donors
T2 sequence (P13612 34-1032): T1 sequence (P13612 34-1032)
T2 sequence (P26010 20-798): T1 sequence (P26010 20-798)
The experiment in a line: Flow cytometry: gp120 binding to RA-cultured CD8+ T-cells. Conditions: peptide at 0.19 μM-12.5 μM (FIG. 8a). The procedure:
Cells and Reagents. Freshly isolated PBMCs were obtained from healthy donors and separated by Ficoll-Hypaque. Purified CD4+ T cells and NK cells were obtained by negative selection using magnetic beads (StemCell Technologies, Vancouver, BC). Cultured PBMCs were activated with OKT3, IL2 (201 U/ml) and retinoic acid (RA, 10 nM) unless otherwise specified. RA was obtained from Sigma Chemical (St. Louis, Mo.). Recombinant Ig-fusion proteins (MadCAM, VCAM-1, E-cadherin) were purchased from R&D Systems (Minneapolis, Minn.). Integrin antibodies were obtained from Serotech Laboratories Ltd. (Raleigh, N.C.) and Chemicon (Temecula, Calif.), while FITC, PE, APC surface marker antibodies were acquired from Beckton Dickinson (San Diego, Calif.). Cyclic peptides CWLDVC (SEQ ID NO:1) and the scrambled control peptide CDLWC (SEQ ID NO:31) were obtained from NeoMPS (San Diego, Calif.). Recombinant gp120s were produced and purified as described in supplemental methods, using hollow-fiber bioreactors (Fibercell Systems, Frederick, Md.). Integrin cDNA expression vectors were acquired from ORIGENE™ (ORIGENE is a trademark of OriGene Technologies, Inc., Rockville, Md.). […]
Recombinant gp120 protein labeling. […] Biotin incorporation was determined by reacting gp120s with 4′-hydroxyazobenzene-2-carboxylic acid-avidin conjugates (HABA) per the manufacturer's instructions (Pierce Chemical, Rockford, Ill.). […]

Entries after “also recorded” stand apart in the source; their conditions may differ. Ends that are not written are not given here.

Turning to “CWLDVC (also: cyclic, kind of ring not given here)”, the “inhibition of binding of natural ligands to α4 / α4β7 integrin” value in the experiment with α4β7 integrin is “inhibit α4 integrin subunit binding to fibronectin, VCAM and MadCAM; also recorded: inhibit binding of all three natural ligands”. Moreover, the “inhibition of gp120-binding to RA cultured CD8+ T-cells by cyclic peptide” value in experiment [1] is “inhibited by CWLDVC in a dose dependent manner”.
